“And” between values parts separate entries of the source, which are not always exact repeats. Identical values can stand only once.
Legend:
[1] = target: FcgammaRIIIA (CD16a), F158 allotype (UniProt P08637); test: SPR
[2] = target: FcgammaRIIB (CD32b), Y163 allotype (UniProt P31994); test: SPR
[3] = target: neonatal Fc receptor (FcRn) (UniProt P55899); test: SPR pH 6.0, Ab captured on goat anti-human IgG, FcRn flowed

Chain of FcgammaRIIB (CD32b), Y163 allotype (P31994 43-217 limits assumed): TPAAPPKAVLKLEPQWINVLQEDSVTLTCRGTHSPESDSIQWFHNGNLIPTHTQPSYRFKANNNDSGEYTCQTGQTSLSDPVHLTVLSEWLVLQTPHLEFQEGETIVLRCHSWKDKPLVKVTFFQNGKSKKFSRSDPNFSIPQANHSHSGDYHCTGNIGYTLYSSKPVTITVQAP
Chain of FcgammaRIIIA (CD16a), F158 allotype (P08637 17-208 limits assumed): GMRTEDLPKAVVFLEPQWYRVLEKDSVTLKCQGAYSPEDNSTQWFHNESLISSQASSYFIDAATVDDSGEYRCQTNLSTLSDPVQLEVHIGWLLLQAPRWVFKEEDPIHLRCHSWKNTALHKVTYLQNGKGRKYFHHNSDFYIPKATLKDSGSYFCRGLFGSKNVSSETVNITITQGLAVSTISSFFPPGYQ

Kd [1] | Kd [2] | Kd [3] | Substance
0.42 µM | 0.83 µM |  | T350V_L351Y_S400E_F405S_Y407V / T350V_T366L_N390R_K392M_T394W (antibody)
0.42 µM | 0.92 µM |  | Q347R_T350V_L351Y_S400E_F405A_Y407V / T350V_K360E_T366L_N390R_K392M_T394W (antibody)
0.42 µM | 0.95 µM |  | Y349C_T350V_L351Y_S400E_F405A_Y407V / T350V_S354C_T366L_N390R_K392M_T394W (antibody)
 | 0.89 µM |  | T350V_L351Y_S400R_F405A_Y407V / T350V_T366L_K392M_T394W (antibody)
 | 0.91 µM |  | T350V_L351Y_S400E_F405A_Y407V / T350V_T366L_N390R_K392L_T394W (antibody)
 | 1.7 µM | 3.7 µM | Herceptin WT (wild-type IgG1 anti-HER-2/neu antibody)
0.42 µM | 0.89 µM |  | T350V_L351Y_S400R_F405A_Y407V / T350V_T366L_N390E_K392M_T394W (antibody)
0.51 µM | 1.2 µM |  | D399C_F405A_Y407V / T366L_K392C_T394W (antibody)
0.46 µM | 1.2 µM | 4.3 µM | AZ3002 (A: T350V/L351Y/F405A/Y407V, B: T350V/T366L/K392M/T394W) (antibody)
 | 0.94 µM |  | T350V_L351Y_S400R_F405A_Y407V / T350V_T366L_N390D_K392M_T394W (antibody)
0.46 µM |  | 4.1 µM | Y349C_T350V_F405A_Y407V / T350V_S354C_T366L_K392M_T394W (antibody)
0.63 µM |  |  | Y349C_D399C_F405A_Y407V / S354C_T366L_K392C_T394W (antibody)
 | 1 µM |  | T350V_F405A_Y407V / T350V_T366L_K392M_T394W (antibody)
0.42 µM |  | 5 µM | AZ133 (A: L351Y/F405A/Y407V, B: T366L/K392M/T394W) (antibody)
0.45 µM and 0.42 µM | 0.9 µM | 5 µM | T350V_L351Y_S400E_F405A_Y407V / T350V_T366L_N390R_K392M_T394W (antibody)
 | 0.99 µM | 3.9 µM | AZ3003 (A: T350V/L351Y/F405A/Y407V, B: T350V/T366L/K392L/T394W) (antibody)
 | 0.67 µM |  | T350V_L351Y_S400E_F405T_Y407V / T350V_T366L_N390R_K392M_T394W (antibody)
0.48 µM |  |  | F405A_Y407V / T366L_T394W (antibody)
0.58 µM | 1.2 µM |  | Y349C_F405A_Y407V / S354C_T366L_T394W (antibody)
0.46 µM |  |  | AZ138 (A: F405A/Y407V, B: T366L/K392M/T394W) (antibody)
 | 0.71 µM |  | T350V_L351Y_S400E_F405A_Y407V / T350V_T366L_N390R_K392F_T394W (antibody)
 | 0.71 µM |  | T350V_L351Y_S400E_F405A_Y407V / T350V_L351Y_T366L_N390R_K392M_T394W (antibody)
0.45 µM | 1 µM |  | T350V_S400E_F405A_Y407V / T350V_T366L_N390R_K392M_T394W (antibody)
